# According to article PMC12912723 (2026):
# T1: PscF from strain PAO1 (Pseudomonas aeruginosa, UniProt P95434 1-85)
# T1 chain: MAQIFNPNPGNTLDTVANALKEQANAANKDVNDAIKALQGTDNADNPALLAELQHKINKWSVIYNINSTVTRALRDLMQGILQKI
# B1: P5B3 (human monoclonal antibody, IgG1) (antibody, V domains shown)
# VH: EVQLVESGGGIVQPGGSLRLSCAASGFTFSSYWMHWVRQAPGKGLVWVSRINSDGSIINYADSVKGRFTISRDNAKKTLHLQMNSLRAEDTAVYYCAKDGVYDALDIWGQGTMVTVSS
# VL: SYELTQPPSVSVSPGQTARITCSADALPNQYTYWYQQKPGQAPVLIMYKDSERPSGIPERFSGSSSGTTVTLTISGVQAEDEADYYCQSTDSRGTYVVFGGGTKLTVL
# B2: P5G10 (human anti-PscF monoclonal antibody) (antibody, V domains shown)
# VH: VQLQQWGAGLLKPSETLSLTCAVYGGSFSDYYWTWIRQAPGKGLEWIGENRHRGTTNYNPSLKGRVTISVDTSKNQFTLKVTSVTAADTAVYFCARQRGSSGGAPSGLDVWGQGTTVTVSS
# VL: QSVLTQPPSASGTPGQRVTISCSGASSNIGTNYVFWYQQFPGTAPKLLIYRNGHRPSGVPDRFSGSKSGASASLAISGLRSDDEADYYCATWDDSLSSQVFGGGTKLTVL
# Columns and labels:
# biotinylated PcrV = biotinylated PcrV (Pseudomonas aeruginosa, UniProt G3XD49 1-294, biotin); experiment: BLI
# PscF from strain PAO1 = target: T1, PscF from strain PAO1; experiment: ELISA; competition with biotinylated P5G10
Binder,Kd (biotinylated PcrV) [nM],IC50 (PscF from strain PAO1) [µg/mL]
B1,0.0239,–
B2,–,0.46
